Reference: patent US20210270842A1 (DYAX, published 2021)

Experiments:
[1] = molecular target: T1, cleaved high molecular weight kininogen (HMWK) (human, UniProt P01042 19-380; P01042 390-644); assay: sandwich ELISA: Fab coated on 96-well plate, kininogen titrated, detection 11H05 + 13B12 and goat anti-mouse-HRP; value = C, midpoint of the printed 4-P fit; 2-chain HMWK spiked into SBT assay buffer
T1 construct: also called cleaved HMWK; 2-chain HMWK
T1 sequence 1: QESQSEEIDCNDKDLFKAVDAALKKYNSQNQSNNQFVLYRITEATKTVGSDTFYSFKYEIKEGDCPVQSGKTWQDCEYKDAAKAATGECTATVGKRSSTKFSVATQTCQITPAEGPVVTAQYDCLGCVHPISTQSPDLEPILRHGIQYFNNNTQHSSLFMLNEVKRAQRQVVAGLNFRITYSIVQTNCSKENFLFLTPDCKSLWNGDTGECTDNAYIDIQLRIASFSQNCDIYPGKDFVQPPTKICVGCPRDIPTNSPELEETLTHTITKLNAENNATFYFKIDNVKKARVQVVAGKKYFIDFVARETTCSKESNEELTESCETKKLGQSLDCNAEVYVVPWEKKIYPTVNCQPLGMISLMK
T1 sequence 2: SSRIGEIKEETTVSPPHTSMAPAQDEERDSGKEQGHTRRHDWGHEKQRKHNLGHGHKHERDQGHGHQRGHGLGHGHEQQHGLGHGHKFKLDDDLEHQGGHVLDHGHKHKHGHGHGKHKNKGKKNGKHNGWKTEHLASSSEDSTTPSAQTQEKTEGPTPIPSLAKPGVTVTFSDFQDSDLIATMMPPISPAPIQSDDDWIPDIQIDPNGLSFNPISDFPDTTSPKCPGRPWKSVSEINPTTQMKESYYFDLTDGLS
Description: Purified cleaved HMWK was spiked into SBT assay buffer (circles) or HMWK-deficient plasma (squares). Purified intact HMWK was spiked into SBT assay buffer (triangles). Purified LMWK was spiked into SBT assay buffer (diamonds). The y-axis presents the ELISA signal in absorbance units, and the x-axis presents the concentration of kininogen in μg/mL.
(§1) The following day, the plate was washed and then blocked with 2% BSA (Protease/IgG free) in PBS buffer. Following a wash, samples containing cleaved HMWK in 0.1% BSA buffer in PBS with 0.05% Tween-20 (2-Chain HMWK assay buffer). Purified protein standards (e.g., 2-chain HMWK, intact HMWK or LMWK) were spiked into HMWK-deficient plasma and diluted 1:320 in 2-chain HMWK assay buffer. Following plate washing with PBST, a mixture of 2 mouse monoclonal antibodies (11H05 and 13B12) at 1 μg/mL in 2-chain HMWK assay buffer were added for 1 hour at room temperature. Unbound detection antibodies were washed and a 1:2000 dilution of goat anti-mouse secondary antibody conjugated to horseradish peroxidase (HRP) was added. […] Signal was detected by the addition of 3,3′,5,5′-tetramethylbenzidine (TMB), an HRP substrate. […] Hydrolysis of a TMB substrate was detected using a microplate reader at 450 nm-630 nm (FIG. 3). […] Using these immunoassay conditions, specifically binding to cleaved HMWK was detected.

[2] = molecular target: T1, cleaved high molecular weight kininogen …; assay: ELISA on coated M004-B04, 2-chain HMWK titrated after preincubation of the plate with competitor HKH20 peptide at 250 µg/mL; value = C of the printed 4-P fit; squares, right-shifted curve (the callout box on the graph names this curve GCP28: see recheck)
Method: (§2) Following plate washing with PBST, a mixture of 2 mouse monoclonal antibodies (11H05 and 13B12) at 1 μg/mL in 2-chain HMWK assay buffer were added for 1 hour at room temperature. Unbound detection antibodies were washed and a 1:2000 dilution of goat anti-mouse secondary antibody conjugated to horseradish peroxidase (HRP) was added. The assay containing the secondary antibody was incubated for 1 hour at room temperature, and unbound secondary antibody was removed by washing with 2-chain HMWK assay buffer. Signal was detected by the addition of 3,3′,5,5′-tetramethylbenzidine (TMB), an HRP substrate. The reaction was stopped with phosphoric acid. Hydrolysis of a TMB substrate was detected using a microplate reader at 450 nm-630 nm (FIG. 3). […] Using these immunoassay conditions, specifically binding to cleaved HMWK was detected.
(§3) To perform the assay, the kininogen peptides were diluted to 250 μg/mL and allowed to preincubate on assay plate. Then, purified 2-chain HMWK in deficient human plasma was diluted 160 and then added to plate.

[3] = molecular target: T1, cleaved high molecular weight kininogen …; assay: ELISA on coated M004-B04, 2-chain HMWK (in deficient plasma, diluted) titrated, no peptide (control); value = C, midpoint of the printed 4-P fit
Method: as §2, §3

[4] = molecular target: T1, cleaved high molecular weight kininogen …; assay: sandwich ELISA with coated Fab; value = C, midpoint of the printed 4-P fit; 2-chain HMWK spiked into SBT buffer, analysed in 10% plasma
Description: Purified cleaved HMWK was spiked into SBT assay buffer (open circles), SBT assay buffer and analyzed in the presence of 10% plasma (squares), or HMWK-deficient plasma and analyzed in the presence of 10% plasma (triangles). Purified cleaved HMWK was also spiked into assay buffer and analyzed in the presence of 2.5% plasma (diamonds) or HMWK deficient plasma and analyzed in the presence of 2.5% plasma (closed circles). The y-axis presents the ELISA signal in absorbance units, and the x-axis presents the concentration of kininogen in μg/mL.
as §1, with “temperature.” for “temperature. Unbound detection antibodies were washed and a 1:2000 dilution of goat anti-mouse secondary antibody conjugated to horseradish peroxidase (HRP) was added.”

B1: 559B-M0004-B04 (Fab, V domains shown)
VH: EVQLLESGGGLVQPGGSLRLSCAASGFTFSFYVMVWVRQAPGKGLEWVSGISPSGGNTAYADSVKGRFTISRDNSKNTLYLQMNSLRAEDTAVYYCARKLFYYDDTKGYFDFWGQGTLVTVSS
VL: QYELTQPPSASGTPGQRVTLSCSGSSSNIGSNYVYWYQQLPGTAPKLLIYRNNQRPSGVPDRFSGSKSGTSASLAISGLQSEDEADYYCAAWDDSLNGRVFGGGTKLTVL
notes: also called M004-B04
- EC50 [1]: 235 µg/mL
- EC50 [2]: 0.0375 µg/mL
- EC50 [3]: 0.0123 µg/mL
- EC50 [4]: 184 µg/mL
